Laboratory results: US10357539B2, “Use of peptides that block metadherin-SND1 interaction as treatment for cancer” (THE TRUSTEES OF PRINCETON UNIVERSITY, priority 2014, dated 2019)

T1: SND1 (Homo sapiens, UniProt Q7KZF4)
T1 construct: 15 μg of His-SND1 (16-339) was added to the resin; made in house; host or cells: E. coli DH5α
T1 sequence (Q7KZF4 16-339): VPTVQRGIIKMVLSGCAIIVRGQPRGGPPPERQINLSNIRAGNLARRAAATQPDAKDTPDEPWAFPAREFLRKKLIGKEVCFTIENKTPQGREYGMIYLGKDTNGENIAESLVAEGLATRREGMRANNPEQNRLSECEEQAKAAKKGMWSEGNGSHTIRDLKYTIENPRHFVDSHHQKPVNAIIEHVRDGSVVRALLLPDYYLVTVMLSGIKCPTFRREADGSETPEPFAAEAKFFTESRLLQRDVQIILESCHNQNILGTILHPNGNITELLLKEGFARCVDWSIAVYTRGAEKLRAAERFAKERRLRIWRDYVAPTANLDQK

T2: SND1 (Homo sapiens, UniProt Q7KZF4)
T2 construct: Full-length HA-tagged SND1 was co-expressed with full-length Myc-tagged wild-type (WT) or mutant MTDH in HEK293T cells; expressed in transfected cells; host or cells: HEK293T
T2 sequence (Q7KZF4 1-910): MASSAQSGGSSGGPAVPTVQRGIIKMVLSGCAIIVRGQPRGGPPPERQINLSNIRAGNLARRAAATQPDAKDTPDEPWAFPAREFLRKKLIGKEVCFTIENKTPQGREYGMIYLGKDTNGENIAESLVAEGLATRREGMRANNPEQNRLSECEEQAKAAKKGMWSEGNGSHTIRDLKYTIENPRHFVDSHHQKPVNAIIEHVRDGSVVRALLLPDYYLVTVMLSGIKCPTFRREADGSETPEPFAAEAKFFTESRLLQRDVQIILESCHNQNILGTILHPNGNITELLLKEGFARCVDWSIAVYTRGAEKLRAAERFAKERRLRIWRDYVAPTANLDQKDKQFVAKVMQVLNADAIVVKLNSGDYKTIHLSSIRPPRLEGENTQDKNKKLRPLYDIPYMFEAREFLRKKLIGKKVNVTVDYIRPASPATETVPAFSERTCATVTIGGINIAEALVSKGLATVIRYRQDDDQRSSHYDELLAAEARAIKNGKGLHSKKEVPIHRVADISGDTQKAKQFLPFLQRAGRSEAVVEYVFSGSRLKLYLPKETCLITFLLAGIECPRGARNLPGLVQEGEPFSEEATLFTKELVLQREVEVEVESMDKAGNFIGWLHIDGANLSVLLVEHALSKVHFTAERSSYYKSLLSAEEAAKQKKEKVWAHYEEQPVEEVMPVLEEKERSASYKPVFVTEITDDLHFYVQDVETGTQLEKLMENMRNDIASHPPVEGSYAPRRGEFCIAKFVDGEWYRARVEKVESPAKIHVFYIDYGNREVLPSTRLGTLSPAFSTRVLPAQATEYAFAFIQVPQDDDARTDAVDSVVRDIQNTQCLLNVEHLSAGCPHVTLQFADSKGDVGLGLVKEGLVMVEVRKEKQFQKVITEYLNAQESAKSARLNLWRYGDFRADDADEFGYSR


Tests used:
[1] = molecular target: T1, SND1; experiment: GST-mediated pull-down of SND1 by GST-tagged MTDH fragments and mutants; assay type: binding; conditions: SND1 (16-339); GST-tagged MTDH (364-582)
Description: (§1) FIGS. 7A-E represents determination of key regions and residues mediating the MTDH-SND1 interaction. (FIG. 7A) Schematics of MTDH fragments and mutants with indicated SND1-binding capability. + indicates binding and − indicates no binding based on results shown below. Two putative nuclear localization signals are residues 432-451 for NLS2 and residues 561-580 for NLS3. In the enlarged view of the minimal binding region 386-407, 9 residues were targeted for mutagenesis in the current study. […] (FIG. 7B) Pulldown of His6-SND1AC by GST-tagged MTDH fragments with indicated boundaries. The bound proteins were examined by SDS-PAGE and visualized by Coomassie blue staining. (FIG. 7C) Pulldown of His6-SND1ΔC by GST-tagged WT or triple mutant MTDH fragments (364-582). For (FIG. 7B) and (FIG. 7C), 1/10 of the His6-SND1ΔC input was shown, and GST alone was used as a negative control. Representative results of 3 independent experiments are shown. (FIG. 7D, FIG. 7E) Lysates from HEK293T cells expressing the indicated ectopic human SND1, AGO2 or MTDH were immunoprecipitated with anti-Myc and immunoblotted with the indicated antibodies.
(§2) (FIG. 22A) In vitro pull-down of SND1 (16-339) by GST-tagged MTDH (364-582) harboring WT or mutant sequence. The proteins bound to GS4B were examined on SDS-PAGE and visualized by Coomassie blue staining. (FIG. 22B) In vitro pull-down of WT and mutant SND1 (16-339) by GST-tagged MTDH (364-582). The bound proteins were examined as in (FIG. 22A). For both (FIG. 22A) and (FIG. 22B), experiments were repeated three times; representative results are shown. The normalized percentage of binding was averaged from three experiments; mean±SEM was shown below the data. (FIG. 22C) HEK293T cells were transfected with human HA-SND1, WT Myc-MTDH or Myc-MTDH with indicated single point mutation. Lysates were immunoprecipitated with anti-Myc antibody and immunoblotted with the indicated antibodies. (FIG. 22D) HEK293T cells were transfected with human Myc-MTDH, WT HA-SND1 or mutant HA-SND1 with indicated single point mutations or deletions. Lysates were immunoprecipitated with anti-Myc and immunoblotted with the indicated antibodies.
GST-Mediated Pull-Down Assay: ˜20 μg of GST-MTDH (different truncation forms and site mutants) was bound to 10 μl of glutathione resin via GST tag. The resin was washed with 200 μl assay buffer (25 mM Tris, PH8.0, 150 mM NaCl, 3 mM DTT) three times to remove the excess unbound protein. 15 μg of His-SND1 (16-339) was added to the resin in a 100 μl volume suspended in the assay buffer with 2 mg/ml of BSA. The mixture was washed with 200 μl assay buffer twice before examined by SDS-PAGE, and visualized by Coomassie blue staining. The experiments were repeated 3 times and the ratio of SND1 associated with GST-MTDH was analyzed by ImageJ.

[2] = molecular target: T2, SND1; experiment: Co-immunoprecipitation of full-length Myc-MTDH (WT or mutant) and HA-SND1 in HEK293T cells; assay type: cell-based; conditions: HEK293T cell lysates, immunoprecipitation and immunoblot
Description: as §1, §2
Immunoprecipitation and western blot For immunoprecipitation (IP) experiments, cultured cells were washed in cold PBS and lysed in lysis buffer (20 mM Tris pH 7.4, 0.15 M NaCl, 1 mM EDTA, 1 mM EGTA, 1% Tx-100, 0.0025 M Na2P2O7, 1 mM α-glycerolphosphate, 1 mM Na3VO4, and 1 mM NaF) with an EDTA-free protease inhibitor mixture (Roche Applied Science) and PMSF. Cell lysates were then incubated on ice for 10 min, centrifuged, and precleared by incubating with protein A/G beads (Santa Cruz Biotechnology) for 1 h at 4° C. For IP bead preparation, 30 μl of protein A/G beads were incubated with 5 μg of antibodies for 2 h at 4° C. IPs were carried out for overnight at 4° C., and beads were centrifuged, washed and subsequently boiled for 5 min in SDS protein loading buffer to elute bound protein. IP lysates were subjected to western blotting with indicated antibodies.
Immunoprecipitation and western blot: For in vivo immunoprecipitation (IP) experiments, cultured cells were washed in cold PBS and lysed in lysis buffer (20 mM Tris pH 7.4, 0.15 M NaCl, 1 mM EDTA, 1 mM EGTA, 1% Tx-100, 0.0025 M Na2P2O7, 1 mM β-glycerolphosphate, 1 mM Na3VO4, and 1 mM NaF) with an EDTA-free protease inhibitor mixture (Roche Applied Science) and PMSF. Cell lysates were then incubated on ice for 10 min, centrifuged, and precleared by incubating with protein A/G beads (Santa Cruz Biotechnology) for 1 h at 4° C. For IP bead preparation, 30 μl of protein A/G beads were incubated with 5 μg of antibodies for 2 h at 4° C. IPs were carried out for overnight at 4° C., and beads were centrifuged, washed and subsequently boiled for 5 min in SDS protein loading buffer to elute bound protein. IP lysates were subjected to western blotting with indicated antibodies.

Row | Molecule | SND1-binding of MTDH (364-582) point mutants, in vitro [1] | interaction of full-length MTDH (WT or mutant) with HA-SND1 [2]
1 | N395A: MTDH mutant N395A (protein, left off: a dimerising Fc or GST) YQWDVSRNQPYIDDEWSGLNGLSSADPNSDWAAPAEEWGNWVDEERASLLKSQEPIPDDQKVSDDDKEKGEGALPTGKSKKKKKKKKKQGEDNSTAQDTEELEKEIREDLPVNTSKTRPKQEKAFSLKTISTSDPAEVLVKNSQPIKTLPPATSTEPSVILSKSDSDKSSSQVPPILQETDKSKSNTKQNSVPPSQTKSETSWESPKQIKKKKKARRET | barely had any effect | 
2 | E400A: MTDH mutant E400A (protein, left off: a dimerising Fc or GST) YQWDVSRNQPYIDDEWSGLNGLSSADPNSDWNAPAEAWGNWVDEERASLLKSQEPIPDDQKVSDDDKEKGEGALPTGKSKKKKKKKKKQGEDNSTAQDTEELEKEIREDLPVNTSKTRPKQEKAFSLKTISTSDPAEVLVKNSQPIKTLPPATSTEPSVILSKSDSDKSSSQVPPILQETDKSKSNTKQNSVPPSQTKSETSWESPKQIKKKKKARRET | barely had any effect | 
3 | N403A: MTDH mutant N403A (protein, left off: a dimerising Fc or GST) YQWDVSRNQPYIDDEWSGLNGLSSADPNSDWNAPAEEWGAWVDEERASLLKSQEPIPDDQKVSDDDKEKGEGALPTGKSKKKKKKKKKQGEDNSTAQDTEELEKEIREDLPVNTSKTRPKQEKAFSLKTISTSDPAEVLVKNSQPIKTLPPATSTEPSVILSKSDSDKSSSQVPPILQETDKSKSNTKQNSVPPSQTKSETSWESPKQIKKKKKARRET | barely had any effect | 
4 | WT MTDH: full-length Myc-tagged wild-type human MTDH (protein, UniProt Q86UE4 1-582, looked up, full-length Myc tag) MAARSWQDELAQQAEEGSARLREMLSVGLGFLRTELGLDLGLEPKRYPGWVILVGTGALGLLLLFLLGYGWAAACAGARKKRRSPPRKREEAAAVPAAAPDDLALLKNLRSEEQKKKNRKKLSEKPKPNGRTVEVAEGEAVRTPQSVTAKQPPEIDKKNEKSKKNKKKSKSDAKAVQNSSRHDGKEVDEGAWETKISHREKRQQRKRDKVLTDSGSLDSTIPGIENTITVTTEQLTTASFPVGSKKNKGDSHLNVQVSNFKSGKGDSTLQVSSGLNENLTVNGGGWNEKSVKLSSQISAGEEKWNSVSPASAGKRKTEPSAWSQDTGDANTNGKDWGRSWSDRSIFSGIGSTAEPVSQSTTSDYQWDVSRNQPYIDDEWSGLNGLSSADPNSDWNAPAEEWGNWVDEERASLLKSQEPIPDDQKVSDDDKEKGEGALPTGKSKKKKKKKKKQGEDNSTAQDTEELEKEIREDLPVNTSKTRPKQEKAFSLKTISTSDPAEVLVKNSQPIKTLPPATSTEPSVILSKSDSDKSSSQVPPILQETDKSKSNTKQNSVPPSQTKSETSWESPKQIKKKKKARRET |  | pulled down
5 | E400R: MTDH single point mutant E400R (protein, listed as Homo sapiens) MAARSWQDELAQQAEEGSARLREMLSVGLGFLRTELGLDLGLEPKRYPGWVILVGTGALGLLLLFLLGYGWAAACAGSRKKRRSPPRKREEAAAVPAAAPDDLALLKNLRSEEQKKKNRKKLSEKPKPNGRTVEVAEGEAVRTPQSVTAKQPPEIDKKNEKSKKNKKKSKSDAKAVQNSSRHDGKEVDEGAWETKISHREKRQQRKRDKVLTDSGSLDSTIPGIENTITVTTEQLTTASFPVGSKKNKGDSHLNVQVSNFKSGKGDSTLQVSSGLNENLTVNGGGWNEKSVKLSSQISAGEEKWNSVSPASAGKRKAEPSAWSQDTGDANTNGKDWGRSWSDRSIFSGIGSTAEPVSQSTTSDYQWDVSRNQPYIDDEWSGLNGLSSADPNSDWNAPAERWGNWVDEERASLLKSQEPIPDDQKVSDDDKEKGEGALPTGKSKKKKKKKKKQGEDNSTAQDTEELEKEIREDLPVNTSKTRPKQEKAFSLKTISTSDPAEVLVKNSQPIKTLPPATSTEPSVILSKSDSDKSSSQVPPILQETDKSKSNTKQNSVPPSQTKSETSWESPKQIKKKKKARRET | barely had any effect | 
